Data on 5 substances can be found in article PMC8154254, “On the Track of Long-Range Electron Transfer in B-Type Dye-Decolorizing Peroxidases: Identification of a Tyrosyl Radical by Computational Prediction and Electron Paramagnetic Resonance Spectroscopy” (Biochemistry, 2021).

The subject of the data set is CCn1c(=NN=c2sc3cc(S(=O)(=O)O)ccc3n2CC)sc2cc(S(=O)(=O)O)ccc21. Kind of data set: purified protein. The conditions noted are these: 40 μM H2O2, 100 nM enzyme, 50 mM phosphate-citrate pH 5.0, room temperature.
As for “KpDyP (B-type Klebsiella pneumoniae dye-decolorizing peroxidase) (Klebsiella pneumoniae; W18F)”, the Km came to 54 ± 8 µM, the kcat was 4.7 s⁻¹ and the kcat/Km worked out at 86000 M⁻¹ s⁻¹.

As for “KpDyP (B-type Klebsiella pneumoniae dye-decolorizing peroxidase) (Klebsiella pneumoniae; W18F/Y92F)”, the Km came to 84 ± 8 µM, the kcat is 6.5 s⁻¹ and the kcat/Km stood at 77000 M⁻¹ s⁻¹.

Consider “KpDyP (B-type Klebsiella pneumoniae dye-decolorizing peroxidase) (Klebsiella pneumoniae; Y237F)”, for which the Km came out at 36 ± 7 µM, the kcat was found to be 4.6 s⁻¹ and the kcat/Km is 125000 M⁻¹ s⁻¹.

On to “KpDyP (B-type Klebsiella pneumoniae dye-decolorizing peroxidase) (Klebsiella pneumoniae; Y247F)”, for which the Km was found to be 270 ± 16 µM, the kcat amounted to 8.7 s⁻¹ and the kcat/Km amounted to 33000 M⁻¹ s⁻¹.

Turning to “KpDyP (B-type Klebsiella pneumoniae dye-decolorizing peroxidase) (Klebsiella pneumoniae; Y247F/Y92F)”, the Km is 345 ± 73 µM, the kcat worked out at 12.8 s⁻¹ and the kcat/Km is 37000 M⁻¹ s⁻¹.

In general, Km refers to the concentration of substrate that gives half-maximal velocity. The kcat is the number of substrate molecules converted per active site and unit of time at saturation. For orientation: kcat/Km means the turnover number divided by the Michaelis constant.
